This data set can be described thus: total protein half-life in vivo (active degradation + dilution); higher = more stable protein.
Setting [1] is: E. coli NCM3722 delta-clpP delta-lon delta-hslV, growth: N-lim chemostat, doubling time 6 h.
Where [2] appears, read: E. coli NCM3722 delta-hslV, growth: N-lim chemostat, doubling time 6 h.
[3] abbreviates: E. coli NCM3722 delta-smpB, growth: N-lim chemostat, doubling time 6 h.
Setting [4] is: wild type E. coli NCM3722, growth: C-lim chemostat, doubling time 3 h.
Where [5] appears, read: wild type E. coli NCM3722, growth: C-lim chemostat, doubling time 6 h.
[6] abbreviates: wild type E. coli NCM3722, growth: C-lim chemostat, doubling time 12 h.
The mark [7] stands for this setting: wild type E. coli NCM3722, growth: N-lim chemostat, doubling time 6 h.
[8] abbreviates: wild type E. coli NCM3722, growth: P-lim chemostat, doubling time 6 h.
Where [9] appears, read: wild type E. coli NCM3722, growth: P-lim chemostat, doubling time 12 h.
Setting [10] is: E. coli NCM3722 delta-clpP, growth: N-lim chemostat, doubling time 6 h.
The mark [11] stands for this setting: E. coli NCM3722 delta-lon, growth: N-lim chemostat, doubling time 6 h.
[12] abbreviates: wild type E. coli NCM3722, growth: N-lim chemostat, doubling time 12 h.

± gives the standard deviation of the averaged measurements.

Consider nine sequences from the supplement of paper PMC11246515.

For the sequence “MSKKIVLALGGNALGDDLAGQMKAVKITSQAIVDLIAQGHEVIVTHGNGPQVGMINQAFEAAAKTEAHSPMLPMSVCVALSQGYIGYDLQNALREELLSRGINKPVATLVTQVEVDANDPAFLNPTKPIGSFFTEQEAEQLTKQGYTLKEDAGRGYRRVVASPKPVDIIEKETVKALVDAGQVVITVGGGGIPVIREGNHLRGASAVIDKDWASARLAEMIDADMLIILTAVEKVAINFGKENEQWLDRLSLSDAERFIEEGHFAKGSMLPKVEAAASFARSRAGREALITVLSKAKEGIEGKTGTVICQ”, the “total protein half-life in vivo” value by setting is: under setting [1], 3.53 h; under setting [2], greater than 8 h; under setting [3], 2.48 h; under setting [4], 2.84 ± 0.39 h; under setting [5], 3.92 h; under setting [6], 6.22 ± 1.5 h. Also, the “total protein half-life in vivo” value is, setting by setting: under setting [7], 2.66 h; under setting [8], 3.03 h; under setting [9], 5.27 ± 1.5 h.
In the case of “MSAEHVLTMLNEHEVKFVDLRFTDTKGKEQHVTIPAHQVNAEFFEEGKMFDGSSIGGWKGINESDMVLMPDASTAVIDPFFADSTLIIRCDILEPGTLQGYDRDPRSIAKRAEDYLRSTGIADTVLFGPEPEFFLFDDIRFGSSISGSHVAIDDIEGAWNSSTQYEGGNKGHRPAVKGGYFPVPPVDSAQDIRSEMCLVMEQMGLVVEAHHHEVATAGQNEVATRFNTMTKKADEIQIYKYVVHNVAHRFGKTATFMPKPMFGDNGSGMHCHMSLSKNGVNLFAGDKYAGLSEQALYYIGGVIKHAKAINALANPTTNSYKRLVPGYEAPVMLAYSARNRSASIRIPVVSSPKARRIEVRFPDPAANPYLCFAALLMAGLDGIKNKIHPGEAMDKNLYDLPPEEAKEIPQVAGSLEEALNELDLDREFLKAGGVFTDEAIDAYIALRREEDDRVRMTPHPVEFELYYSV [P0A9C5]”, the “total protein half-life in vivo” value by setting is: under setting [1], 5.3 ± 0.14 h; under setting [10], 4.58 ± 0.32 h; under setting [2], 4.63 ± 0.14 h; under setting [11], 5.06 ± 0.33 h; under setting [3], 4.02 ± 0.12 h; under setting [4], 3.39 ± 0.49 h. The “total protein half-life in vivo” value runs as follows: under setting [5], 6.33 ± 0.86 h; under setting [6], 11.5 ± 0.3 h; under setting [7], 4.25 ± 0.046 h; under setting [12], 7.49 ± 0.92 h; under setting [8], 5.8 ± 0.092 h; under setting [9], 12.1 ± 0.55 h.
In the case of “MNNIQIRNYQPGDFQQLCAIFIRAVTMTASQHYSPQQISAWAQIDESRWKEKLAKSQVWVAIINAQPVGFISRIEHYIDMLFVDPEYTRRGVASALLKPLIKSESELTVDASITAKPFFERYGFQTVKQQRVECRGAWFTNFYMRYKPQH”, the “total protein half-life in vivo” value is 4.81 h under setting [1]; 3.71 ± 0.28 h under setting [10]; 3.82 h under setting [2]; 2.9 h under setting [3]; greater than 8 h under setting [5]; greater than 8 h under setting [7]. The “total protein half-life in vivo” value under setting [9] was found to be 9.48 ± 0.24 h.
In the case of “MFKKGLLALALVFSLPVFAAEHWIDVRVPEQYQQEHVQGAINIPLKEVKERIATAVPDKNDTVKVYCNAGRQSGQAKEILSEMGYTHVENAGGLKDIAMPKVKG”, the “total protein half-life in vivo” value is, setting by setting: under setting [11], 2.7 ± 0.26 h; under setting [3], 2.61 h; under setting [4], 1.97 ± 0.051 h; under setting [5], 2.89 h; under setting [6], 3.42 ± 0.39 h; under setting [9], 3.19 h.
In the case of “MFSALRHRTAALALGVCFILPVHASSPKPGDFANTQARHIATFFPGRMTGTPAEMLSADYIRQQFQQMGYRSDIRTFNSRYIYTARDNRKSWHNVTGSTVIAAHEGKAPQQIIIMAHLDTYAPLSDADADANLGGLTLQGMDDNAAGLGVMLELAERLKNTPTEYGIRFVATSGEEEGKLGAENLLKRMSDTEKKNTLLVINLDNLIVGDKLYFNSGVKTPEAVRKLTRDRALAIARSHGIAATTNPGLNKNYPKGTGCCNDAEIFDKAGIAVLSVEATNWNLGNKDGYQQRAKTPAFPAGNSWHDVRLDNHQHIDKALPGRIERRCRDVMRIMLPLVKELAKAS”, the “total protein half-life in vivo” value is 5.3 ± 0.29 h under setting [10]; 5.24 ± 0.83 h under setting [2]; 5.44 ± 0.031 h under setting [11]; 4.38 ± 0.053 h under setting [3]; 2.58 ± 0.67 h under setting [4]; 2.46 h under setting [5]. Moreover, the “total protein half-life in vivo” value runs as follows: under setting [7], 5.37 ± 1 h; under setting [12], 9.09 ± 1.6 h; under setting [8], 4 ± 0.27 h; under setting [9], 7.1 ± 0.99 h.
In the case of “MGLFNFVKDAGEKLWDAVTGQHDKDDQAKKVQEHLNKTGIPDADKVNIQIADGKATVTGDGLSQEAKEKILVAVGNISGIASVDDQVKTATPATASQFYTVKSGDTLSAISKQVYGNANLYNKIFEANKPMLKSPDKIYPGQVLRIPEE [P0ADE6]”, the “total protein half-life in vivo” value came to 6.19 ± 0.023 h under setting [1]; 5.8 ± 0.83 h under setting [10]; 5.979 ± 0.053 h under setting [2]; 6.34 ± 0.072 h under setting [11]; 5.3 ± 0.33 h under setting [3]; 3.18 ± 0.085 h under setting [4]. The “total protein half-life in vivo” value by setting is: under setting [5], 5.55 ± 0.29 h; under setting [6], 9.85 ± 1.1 h; under setting [7], 4.67 ± 0.066 h; under setting [12], 9.41 ± 1.2 h; under setting [8], 5.21 ± 0.41 h; under setting [9], 11.7 ± 0.15 h.
Regarding “MSSLSQAASSVEKRTNARYWIVVMLFIVTSFNYGDRATLSIAGSEMAKDIGLDPVGMGYVFSAFSWAYVIGQIPGGWLLDRFGSKRVYFWSIFIWSMFTLLQGFVDIFSGFGIIVALFTLRFLVGLAEAPSFPGNSRIVAAWFPAQERGTAVSIFNSAQYFATVIFAPIMGWLTHEVGWSHVFFFMGGLGIVISFIWLKVIHEPNQHPGVNKKELEYIAAGGALINMDQQNTKVKVPFSVKWGQIKQLLGSRMMIGVYIGQYCINALTYFFITWFPVYLVQARGMSILKAGFVASVPAVCGFIGGVLGGIISDWLMRRTGSLNIARKTPIVMGMLLSMVMVFCNYVNVEWMIIGFMALAFFGKGIGALGWAVMADTAPKEISGLSGGLFNMFGNISGIVTPIAIGYIVGTTGSFNGALIYVGVHALIAVLSYLVLVGDIKRIELKPVAGQ”, the “total protein half-life in vivo” value under setting [5] was 5.06 h.
On to “MTSGLERLSNLLSKKDSVFVSDLLREAKVNELDETLSTTRLNHLIDKGYERITLQLDLGGESPGYLEKDKHYREADAALLNVIYPTNLSKINTRRKEQV”, for which the “total protein half-life in vivo” value under setting [1] turned out to be 4.54 h.
For “MLCVKNVSLRLPESRLLTNVNFTVDKGDIVTLMGPSGCGKSTLFSWMIGALAEQFSCTGELWLNEQRIDILPTAQRQIGILFQDALLFDQFSVGQNLLLALPATLKGNARRNAVNDALERSGLEGAFHQDPATLSGGQRARVALLRALLAQPKALLLDEPFSRLDVALRDNFRQWVFSEVRALAIPVVQVTHDLQDVPADSSVLDMAQWSENYNKLR”, the “total protein half-life in vivo” value amounted to 6.284 ± 0.01 h under setting [1]; 5.73 ± 0.066 h under setting [10]; 6.47 ± 0.07 h under setting [2]; 6.28 ± 0.58 h under setting [11]; 5.27 ± 0.077 h under setting [3]; 3.11 ± 0.35 h under setting [4]. Also, the “total protein half-life in vivo” value under setting [5] amounted to 6.13 ± 0.53 h; the “total protein half-life in vivo” value under setting [6] came to 10.8 ± 2.7 h; the “total protein half-life in vivo” value under setting [7] was 6.45 ± 0.98 h; the “total protein half-life in vivo” value under setting [12] came to 12.7 ± 0.24 h; the “total protein half-life in vivo” value under setting [8] was 5.99 ± 0.28 h; the “total protein half-life in vivo” value under setting [9] was determined as 13.7 ± 0.89 h.
